The target in series [1] is YbaK (Escherichia coli) (UniProt P0AAR3). Particulars: cited from earlier work.
The target is the same in series [2]. The note with it: cited from earlier work. The source holds these as a separate data set.
Series [3] has as its system ProXp-ala (Caulobacter crescentus). Briefly: native MS competition. Particulars: equimolar three-tRNA mix, 0.33 uM each; 5 uM protein; 1 mM Mg(OAc)2; unmodified transcript; AUC: 50 mM HEPES pH 6.8, 30 mM KCl, 1 mM MgCl2, 20 C; native MS: 200 mM ammonium acetate pH 7.5 (1 mM Mg(OAc)2 stated for ProXp-ala/YbaK competition); scale: ratio of complex tRNAPro:tRNACys:tRNAAla.

Read-outs that look alike come from different tables or passages of the source.

ProRS (from UniProt P16659): the Kd with YbaK (Escherichia coli) [1] was 550 nM; with YbaK (Escherichia coli) [2], 45 nM.

Take tRNAPro: the binding signal in series [3] is 4.

With tRNACys, in series [3], the binding signal came to 1.

On to tRNAAla G35A, for which the binding signal in series [3] was found to be 1.

Source of the values: publication PMC6344894.
